From US20240240147A1
Blank lines part the entries; values can stand above or below the substance they belong to.

Biological target: human B cell antigen CD19 on human B-ALL cells (human) (UniProt P15391)
Assay: cell-based or functional assay

percent of macrophages (from mouse SCF/2i GMPs) that engulfed GFP-positive human B-ALL cells within 1 hour of co-culture: 5.23%
Substance: CarP^Fc19-RFP (αCD19 scFv, human CD8 hinge/transmembrane, mouse Fcer1g aa19-86, mouse CD19 aa491-535, P2A-RFP) (from UniProt P01732 138-206; P20491 19-86; P25918 491-535)

percent of macrophages (from mouse SCF/2i GMPs) that engulfed human B-ALL leukemia cells within 1 hour of co-culture, by flow cytometry: 41.6%
Substance: αCD19 CarP^zFc19-RFP (αCD19 scFv, human CD8 hinge/transmembrane, mouse CD3ζ aa52-164, mouse Fcer1g aa45-86, mouse CD19, P2A-RFP) (from UniProt P01732 138-206; P24161 52-164; P20491 45-86; P25918 491-535)

percent of CarP-RFP macrophages (from GMPs expanded in modified SCF/2i) that engulfed GFP-labeled human B-ALL cells within 1 hour of co-culture; control CAR without signaling domain: 0.87%
percent of macrophages (from mouse SCF/2i GMPs) that phagocytized GFP-labeled human B-ALL cells within 1 hour of co-culture; control CAR without signaling domain: 0.21%
Substance: CarP-RFP (control CarP: extracellular αCD19 scFv, CD8 transmembrane domain, RFP, no cytoplasmic signaling domain) (from UniProt P01732 138-206)

percent of macrophages (from GMPs expanded in modified SCF/2i) that engulfed GFP-labeled human B-ALL leukemia cells within 1 hour of co-culture, by flow cytometry: 28.6%
Substance: human CarPzFc19-RFP (αCD19 scFv, human CD8 hinge/transmembrane, human CD3ζ aa52-164, human Fcer1g aa45-86, human CD19 aa498-544) (from UniProt P01732 138-206; P20963 52-164; P30273 45-86; P15391 498-544)
